Assay in all cases: EMSA; 100 pmol protein, 10 fmol DNA, 500 ng calf thymus DNA; EMSA, 10 ul, 4 C, 60 min: 25 mM Tris-HCl pH 8.0, 500 uM DTT, 500 uM EDTA, 10% glycerol, 25 mM NaCl, 25 mM KCl, 10 uM ZnCl2, 125 uM each dNTP, 4 mM spermidine, 500 ng calf thymus DNA, 10 fmol 32P-dsDNA, 100 pmol protein; 12% PAGE
Settings in all cases: protein: recombinant; tags: His (pET21a(+), BamHI/XhoI); label: 5'-32P
A general note: A gel shift assay detects complexes by their altered migration in electrophoresis.

For one data set, the target named is T1, His-KsgA (1-273) (Escherichia coli, UniProt P06992 1-273).
T1 sequence: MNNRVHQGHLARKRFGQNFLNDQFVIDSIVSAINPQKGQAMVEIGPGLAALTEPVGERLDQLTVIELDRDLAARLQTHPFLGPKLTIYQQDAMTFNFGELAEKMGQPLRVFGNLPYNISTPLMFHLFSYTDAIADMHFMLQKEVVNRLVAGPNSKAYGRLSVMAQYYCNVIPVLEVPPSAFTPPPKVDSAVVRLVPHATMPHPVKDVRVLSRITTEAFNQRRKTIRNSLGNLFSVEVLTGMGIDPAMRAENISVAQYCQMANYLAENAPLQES

The target of another data set is T2, His-KsgA (9-273) (Escherichia coli, UniProt P06992 9-273, del1-8).
T2 sequence: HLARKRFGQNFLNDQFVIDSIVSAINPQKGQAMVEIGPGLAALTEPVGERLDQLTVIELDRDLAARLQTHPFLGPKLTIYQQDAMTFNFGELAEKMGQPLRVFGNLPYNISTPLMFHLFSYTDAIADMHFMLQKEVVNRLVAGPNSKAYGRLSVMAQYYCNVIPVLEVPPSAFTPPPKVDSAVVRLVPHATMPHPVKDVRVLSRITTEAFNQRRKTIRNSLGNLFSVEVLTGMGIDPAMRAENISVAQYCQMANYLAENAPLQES

The target in a further data set is T3, His-KsgA (1-213) (Escherichia coli, UniProt P06992 1-213, del214-273).
T3 sequence: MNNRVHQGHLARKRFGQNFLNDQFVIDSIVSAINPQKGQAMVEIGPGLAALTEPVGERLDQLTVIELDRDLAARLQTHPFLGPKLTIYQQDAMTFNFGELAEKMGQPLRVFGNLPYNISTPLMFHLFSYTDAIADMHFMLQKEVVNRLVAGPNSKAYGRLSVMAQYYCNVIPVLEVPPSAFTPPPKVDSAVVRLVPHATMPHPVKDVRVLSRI

B1: 5-foU/C duplex (dsDNA)
DNA 1: GGTACCTTCAGTCGACC
DNA 2: GGTCGACTUAAGGTACC
modifications: 5-formyluracil (5-foU) opposite C
Take B1: the binding result with His-KsgA (1-273) and in the data set with His-KsgA (9-273) was “binds” each time.

B2: 5-ohC/G duplex (dsDNA)
DNA 1: GAACTAGTGCATCCCCCGGGCTGC
DNA 2: GCAGCCCGGGGGATGCACTAGTTC
modifications: 5-hydroxycytosine (5-ohC) opposite G
With B2, the binding result in the data set with His-KsgA (1-273) is reported as “binds”; with His-KsgA (9-273), “binds”; with His-KsgA (1-213) it was “no binding”.

B3: Tg/C duplex (dsDNA)
DNA 1: GCTGCCCGGGGGTTCCTCTTGTTC
DNA 2: GAACAAGAGTAACCCCCGGGCAGC
modifications: thymine glycol (Tg) opposite C
Consider B3, for which the figures for the binding result in the data set with His-KsgA (1-273), with His-KsgA (9-273) and with His-KsgA (1-213) were “binds”, “binds” and “no binding”, respectively.

B4: 5-ohC/C duplex (dsDNA)
DNA 1: GAACTAGTGCATCCCCCGGGCTGC
DNA 2: GCAGCCCGGGGGATCCACTAGTTC
modifications: 5-hydroxycytosine (5-ohC) opposite C
Regarding B4, the values for the binding result in the data set with His-KsgA (1-273), with His-KsgA (9-273) and in the data set with His-KsgA (1-213) were “binds”, “binds” and “no binding”, respectively.

B5: 5-ohC/A duplex (dsDNA)
DNA 1: GAACTAGTGCATCCCCCGGGCTGC
DNA 2: GCAGCCCGGGGGATACACTAGTTC
modifications: 5-hydroxycytosine (5-ohC) opposite A
Regarding B5, the binding result is “binds” with His-KsgA (1-273), “binds” with His-KsgA (9-273) and “no binding” in the data set with His-KsgA (1-213).

B6: 5-ohC/T duplex (dsDNA)
DNA 1: GAACTAGTGCATCCCCCGGGCTGC
DNA 2: GCAGCCCGGGGGATTCACTAGTTC
modifications: 5-hydroxycytosine (5-ohC) opposite T
As to B6, the binding result with His-KsgA (1-273) is recorded as “binds”; with His-KsgA (9-273), “binds”; in the data set with His-KsgA (1-213) it was “no binding”.

The values are drawn from PMC10091538, “The H2TH-like motif of the Escherichia coli multifunctional protein KsgA is required for DNA binding involved in DNA repair and the suppression of mutation frequencies”.
